In the Human Domainome abundance scans (Beltran et al. 2025):
± gives the uncertainty stated by the source.

B1: Peroxisome proliferator-activated receptor delta, residues 71 to 145; numbered along this chain, Q03181 (parent)
chain: NMECRVCGDKASGFHYGVHACEGCKGFFRRTIRMKLEYEKCERSCKIQKKNRNKCQYCRFQKCLALGMSHNAIRF

Variants of: B1
Assay: abundance fitness (aPCA) (normalised: wild type 0, dead -1); higher = more abundant; growth selection in yeast, the domain comes from the species named
Conditions: Homo sapiens

Abundance fitness of substitutions, site by site:
C63: I -0.669 ± 0.17; E -0.689 ± 0.13; Q -0.698 ± 0.11; L -0.547 ± 0.062; R -0.508 ± 0.054; M -0.063 ± 0.06; F -0.403 ± 0.095; V -0.912 ± 0.12; W -0.88 ± 0.13; D -0.635 ± 0.14; T -0.85 ± 0.13
R74: Q 0.284 ± 0.06; S 0.093 ± 0.046; P 0.151 ± 0.047; C -0.141 ± 0.099; T 0.071 ± 0.062; I 0.001 ± 0.11; N 0.011 ± 0.15; G 0.224 ± 0.038; F 0.049 ± 0.18; V -0.013 ± 0.061; W -0.084 ± 0.06; A 0.079 ± 0.05; E 0.259 ± 0.052; Y -0.081 ± 0.14; K 0.067 ± 0.075; M 0.004 ± 0.081
N71: K -0.127 ± 0.051; L -0.412 ± 0.054; C -0.246 ± 0.089; P 0.095 ± 0.047; F -0.477 ± 0.11; Q 0.034 ± 0.051; M -0.394 ± 0.081; A -0.036 ± 0.045; D 0.103 ± 0.064; I -0.361 ± 0.14; E 0.142 ± 0.048; H -0.173 ± 0.074; Y -0.337 ± 0.089; V -0.31 ± 0.046; R -0.242 ± 0.036; G -0.038 ± 0.035; W -0.362 ± 0.059
M68: H -0.771 ± 0.25; D -0.696 ± 0.16; L -0.725 ± 0.089; T -0.769 ± 0.14; Y -0.718 ± 0.16; K -0.769 ± 0.14; E -0.794 ± 0.12; C -0.9 ± 0.17; V -0.652 ± 0.074; Q -0.668 ± 0.12; S -0.746 ± 0.1; F -0.529 ± 0.11; W -0.148 ± 0.049; I -0.703 ± 0.15; R -0.698 ± 0.065; N -0.81 ± 0.37; P -0.64 ± 0.11; G -0.822 ± 0.081
L64: A -0.38 ± 0.059; E -0.397 ± 0.073; C -0.16 ± 0.073; F -0.828 ± 0.23; Q -0.162 ± 0.056; I -0.037 ± 0.07; D -0.83 ± 0.18; W -0.755 ± 0.1; H -0.274 ± 0.1; N -0.906 ± 0.21; G -0.805 ± 0.079; V -0.022 ± 0.038; S -0.648 ± 0.089; T -0.288 ± 0.065; M -0.188 ± 0.058; P -0.838 ± 0.12; R -0.391 ± 0.041
F60: W -0.003 ± 0.047; I -0.399 ± 0.13; P -0.802 ± 0.11; T -0.549 ± 0.1; K -0.742 ± 0.21; Q -1.04 ± 0.21; A -0.941 ± 0.14; H -0.528 ± 0.17; E -1.03 ± 0.17; R -0.798 ± 0.084; S -0.557 ± 0.09; C -0.84 ± 0.16; Y -0.223 ± 0.11; V -0.622 ± 0.066; L -0.027 ± 0.039; M -0.073 ± 0.055; D -0.633 ± 0.19
F75: A 0.15 ± 0.08; C 0.193 ± 0.064; M -0.192 ± 0.12; E 0.088 ± 0.09; R 0.066 ± 0.054; T 0.171 ± 0.069; D 0.285 ± 0.09; N -0.021 ± 0.094; S 0.216 ± 0.049; I -0.023 ± 0.09; Q 0.301 ± 0.093; G 0.218 ± 0.047; P 0.152 ± 0.057; L 0.128 ± 0.05; K 0.238 ± 0.11
L66: I 0.106 ± 0.059; W -0.629 ± 0.12; M 0.109 ± 0.05; E 0.067 ± 0.046; N -0.014 ± 0.073; Y -0.345 ± 0.12; K -0.018 ± 0.05; T 0.086 ± 0.049; R -0.315 ± 0.046; G -0.419 ± 0.051; V 0.113 ± 0.035; P -0.681 ± 0.13; D -0.521 ± 0.12; F -0.438 ± 0.11; H -0.436 ± 0.13; Q 0.014 ± 0.056; A -0.077 ± 0.048; C -0.15 ± 0.077; S 0.03 ± 0.039
G67: K -0.407 ± 0.091; Q -0.604 ± 0.16; V -0.673 ± 0.075; T -0.687 ± 0.12; S -0.694 ± 0.077; F -0.459 ± 0.14; A -0.411 ± 0.07; W -0.666 ± 0.1; P -0.562 ± 0.13; R -0.584 ± 0.052; I -0.74 ± 0.22; L -0.808 ± 0.091; D -0.441 ± 0.11; N -0.36 ± 0.1; H -0.714 ± 0.23; E -0.525 ± 0.091; M -0.497 ± 0.097; Y -0.854 ± 0.23; C -0.469 ± 0.11
R59: Y 0.107 ± 0.066; D -0.361 ± 0.13; E -0.933 ± 0.16; F -0.042 ± 0.079; G -0.867 ± 0.076; A -0.459 ± 0.062; T -0.218 ± 0.054; L 0.098 ± 0.035; S -0.928 ± 0.13; V -0.472 ± 0.058; N -0.704 ± 0.2; H -0.005 ± 0.078; M -0.023 ± 0.053; I -0.837 ± 0.19; W 0.204 ± 0.038; P -0.903 ± 0.16; C -0.442 ± 0.1; K -0.199 ± 0.064
